# Patent publication US11419921B2, “Methods of treating neurological disorders” (EnClear Therapies, Inc., priority 2018, dated 2022)
# How the values were obtained:
# (GR)10 [1] = experiment: (GR)10 digestion with immobilized proteases in human cerebrospinal fluid (CSF); format: biochemical; conditions: immobilized enzyme
# Description: (§1) Protease solutions were prepared at 2 mg/mL in sterile PBS with calcium, magnesium and 200 μL ([…]) were applied to 100 μL of pre-washed NHS-activated agarose resin in 0.8 mL centrifuge columns. Reactions were left 1.5 hour at room temperature with end-to-end mixing, after which resins were washed with 12 resin volumes of PBS. Unreacted sites were blocked with 500 μL of 1M ethanolamine for 15 minutes at room temperature and resins were further washed with 24 resin volumes. Resins were stored at 4 degrees in 500 μL of PBS containing 0.05% sodium azide as preservative.
# 200 μM of (GR)10 were diluted in human cerebrospinal fluid (CSF) and 400 μL were applied to each immobilized proteases. The reaction was incubated 5 minutes at room temperature with end-to-end mixing. Columns were spun down 1 minute at 1,000 Xg to recover digested GR dipeptides. Columns were washed with 12 resin volumes of PBS. The procedure was repeated with 60 minutes digestion time. 100 μL of each samples were transferred to a clean tube, flash-frozen and subsequently used for LC/MS quantification of GR repeats of different lengths. The remaining 300 μL of each samples were flash-frozen and used to assess neuron toxicity.
# (GR)10 was digested with exemplary immobilized enzymes as described above in the subsection titled “(GR)10 digestion with immobilized proteases in CSF” of Example 3. Clostripain experiments were conducted with and without DTT activation (no DTT during digestion). The results obtained after 5 and 60 minutes of reaction time are presented in Table 25 and shown in FIG. 5 (commercial and in-house immobilized trypsin), FIG. 6 (immobilized elastase, FIG. 7A (immobilized clostripain without DTT) and FIG. 7 (immobilized clostripain with 2.5 mM DTT).
# (GR)10 [2] = experiment: (GR)10 digestion with immobilized proteases (NHS-activated agarose resin) in PBS; format: biochemical; conditions: normalized
# Description: as §1
# 110 μL of 50 μM (GR)10 dipeptide repeats prepared in PBS were added to each immobilized protease and incubated 5 minutes at room temperature with end-to-end mixing. Columns were spun down 1 minute at 1,000 Xg to recover digested GR dipeptides. Columns were washed with 110 μL of PBS to increase (GR)10 recovery. This procedure was repeated with 60 minutes digestion time. 100 μL of each samples were transferred to a new tube and 5 μL of 10% TFA followed by 300 μL of Dilution Solution were added. The reaction mixtures were analyzed by LC/MS to determine the concentration of GR repeats of different lengths.
# [3] = resin wash from 60 min reaction
molecule,measurement,setting,value
"Commercial Trypsin: commercial immobilized trypsin, presumably the ThermoFisher immobilized TPCK-trypsin of Example 2 (protein, UniProt P00760 24-246, looked up, TPCK-treated, immobilized on agarose resin) Serine protease 1: IVGGYTCGANTVPYQVSLNSGYHFCGGSLINSQWVVSAAHCYKSGIQVRLGEDNINVVEGNEQFISASKSIVHPSYNSNTLNNDIMLIKLKSAASLNSRVASISLPTSCASAGTQCLISGWGNTKSSGTSYPDVLKCLKAPILSDSSCKSAYPGQITSNMFCAGYLEGGKDSCQGDSGGPVVCSGKLQGIVSWGSGCAQKNKPGVYTKVCNYVSWIKQTIASN",(GR)1 (normalized uM),(GR)10 [1]; 5 min reaction,1117.3 µM
same,(GR)2 (normalized uM),(GR)10 [1]; 5 min reaction,0.0 µM
same,(GR)3 (normalized uM),(GR)10 [1]; 5 min reaction,0.0 µM
same,(GR)4 (normalized uM),(GR)10 [1]; 5 min reaction,0.0 µM
same,(GR)5 (normalized uM),(GR)10 [1]; 5 min reaction,0.0 µM
same,(GR)6 (normalized uM),(GR)10 [1]; 5 min reaction,0.0 µM
same,(GR)8 (normalized uM),(GR)10 [1]; 5 min reaction,0.0 µM
same,(GR)10 (normalized uM),(GR)10 [1]; 5 min reaction,0.0 µM
same,(GR)1 (normalized uM),(GR)10 [1]; 60 min reaction,1197.4 µM
same,(GR)2 (normalized uM),(GR)10 [1]; 60 min reaction,0.0 µM
same,(GR)3 (normalized uM),(GR)10 [1]; 60 min reaction,0.0 µM
same,(GR)4 (normalized uM),(GR)10 [1]; 60 min reaction,0.0 µM
same,(GR)5 (normalized uM),(GR)10 [1]; 60 min reaction,0.0 µM
same,(GR)6 (normalized uM),(GR)10 [1]; 60 min reaction,0.0 µM
same,(GR)8 (normalized uM),(GR)10 [1]; 60 min reaction,0.0 µM
same,(GR)10 (normalized uM),(GR)10 [1]; 60 min reaction,0.0 µM
same,(GR)1,(GR)10 [2]; Immobilized - 5 min reaction,301.2 µM
same,(GR)2,(GR)10 [2]; Immobilized - 5 min reaction,0.0 µM
same,(GR)3,(GR)10 [2]; Immobilized - 5 min reaction,0.0 µM
same,(GR)4,(GR)10 [2]; Immobilized - 5 min reaction,0.0 µM
same,(GR)5,(GR)10 [2]; Immobilized - 5 min reaction,0.0 µM
same,(GR)6,(GR)10 [2]; Immobilized - 5 min reaction,0.0 µM
same,(GR)8,(GR)10 [2]; Immobilized - 5 min reaction,0.0 µM
same,(GR)10,(GR)10 [2]; Immobilized - 5 min reaction,0.0 µM
same,(GR)1,(GR)10 [2]; immobilized - 60 min reaction,308.6 µM
same,(GR)2,(GR)10 [2]; immobilized - 60 min reaction,0.0 µM
same,(GR)3,(GR)10 [2]; immobilized - 60 min reaction,0.0 µM
same,(GR)4,(GR)10 [2]; immobilized - 60 min reaction,0.0 µM
same,(GR)5,(GR)10 [2]; immobilized - 60 min reaction,0.0 µM
same,(GR)6,(GR)10 [2]; immobilized - 60 min reaction,0.0 µM
same,(GR)8,(GR)10 [2]; immobilized - 60 min reaction,0.0 µM
same,(GR)10,(GR)10 [2]; immobilized - 60 min reaction,0.0 µM
same,(GR)1,(GR)10 [2]; resin wash from 5 min reaction,131.9 µM
same,(GR)2,(GR)10 [2]; resin wash from 5 min reaction,0.0 µM
same,(GR)3,(GR)10 [2]; resin wash from 5 min reaction,0.0 µM
same,(GR)4,(GR)10 [2]; resin wash from 5 min reaction,0.0 µM
same,(GR)5,(GR)10 [2]; resin wash from 5 min reaction,0.0 µM
same,(GR)6,(GR)10 [2]; resin wash from 5 min reaction,0.0 µM
same,(GR)8,(GR)10 [2]; resin wash from 5 min reaction,0.0 µM
same,(GR)10,(GR)10 [2]; resin wash from 5 min reaction,0.0 µM
same,(GR)1,(GR)10 [2]; [3],145.7 µM
same,(GR)2,(GR)10 [2]; [3],0.0 µM
same,(GR)3,(GR)10 [2]; [3],0.0 µM
same,(GR)4,(GR)10 [2]; [3],0.0 µM
same,(GR)5,(GR)10 [2]; [3],0.0 µM
same,(GR)6,(GR)10 [2]; [3],0.0 µM
same,(GR)8,(GR)10 [2]; [3],0.0 µM
same,(GR)10,(GR)10 [2]; [3],0.0 µM
